Test results reported in patent publication US20080081047A1.

Tests used:
[1] = biological target: SARS-HCoV antigen(s) of unknown identity (purified whole virus, infected Vero cell lysate or infected Vero cells); experiment: ELISA, virus heated 100 C 10 min, coated at 32 ng/well
[2] = biological target: SARS-HCoV antigen(s) of unknown identity (purified whole virus, infected Vero cell lysate or infected Vero cells); experiment: ELISA, native gradient purified virus coated at 32 ng/well
[3] = biological target: SARS-HCoV antigen(s) of unknown identity (purified whole virus, infected Vero cell lysate or infected Vero cells); experiment: ELISA, OD on native virus against OD on heat-denatured virus

B1: F26G7 (antibody, V domains shown)
VH: VELLESGTVLARPGASVKMSCEASGYTFTTYWMHWIKQRPGQGLEWIGAIYPGNSDTTYNQKFKGKAKLTAVTSTSTAYMELSSLTNEDSAVYYCTREGIPQLLRTMDYWGQGTSVTVSS
VL: ELVMTQSPSSLSASLGERVSLTCRASQEISGYLSWLQQKPDGTIKRLIYAASTLDSGVPKRFSGSRSGSDYSLTISSLESEDFADYYCLQYISYPWTFGGGTKLEIKR
ELISA OD 405 nm, Denatured Lysate [1]: 0.382 OD 405 nm
ELISA OD 405 nm, Viral Lysate (native) [2]: 1.92 OD 405 nm
O.D. Reduction, Fold [3]: 5 fold
O.D. Reduction, Percent [3]: 80%

B2: F26G9 (antibody, V domains shown)
VH: VQLLESGTVLARPGASVKMSCKASGYSFTSYWMHWVKQRPGQGLEWIGAIYPGNSDTSYNQKFKGKAKLTAVTSASTAYMELSSLTNEDSAVYYCTRSVYYGYGYFDVWGAGTTVTVSS
VL: DILMTQSHKCMSTSVGDRVSITCKASQDVSTAVVWYQQKPGQFPKLLIYWASTRHTGVPDRFTGSGSGTDYTLTISSVQAEDLALYYCQQHYTTPYTFGGGTKLEIKR
ELISA OD 405 nm, Denatured Lysate [1]: 0.278 OD 405 nm
ELISA OD 405 nm, Viral Lysate (native) [2]: 1.34 OD 405 nm
O.D. Reduction, Fold [3]: 4.8 fold
O.D. Reduction, Percent [3]: 79%

B3: F26G10 (antibody, V domains shown)
VH: EVQLEESGTVLARPGASVKMSCKASGYSFTSYWMHWVKQRPGQGLDWIGAIYPENSDTSYNQKFKGKAKLTAVTSASTAYMEHSSLTNEDSAVYYCTRSVYYGYGYFDVWGAGTTVTVSS
VL: DILMTQSHKFMSTSVGDRVSITCKASQDVSTAVAWYQQKPGQSPKLLIYWASTRHTGVPDRFTGSGSGTDYTLTISSVQAEDLALYYCQQHYSTPYTFGGGTKLEIKR
ELISA OD 405 nm, Denatured Lysate [1]: 0.29 OD 405 nm
ELISA OD 405 nm, Viral Lysate (native) [2]: 1.26 OD 405 nm
O.D. Reduction, Fold [3]: 4.3 fold
O.D. Reduction, Percent [3]: 77%

B4: F26G3 (antibody, V domains shown)
VH: EVRLQQSGPELVKPGASVKISCKTSGYTFTEYTMHWVKQSHGKNLEWIGGINPNNGGTTYNQKFKGKATLTVDKSSNTAYMELRSLTSEDSAVYYCSRGDYGTSYGYFDVWGAGTTVTVSS
VL: DILMTQSPTSFAVSLGQRATISCRTSQSVSTSSYSYMHWYQQKPGQPPKLLIKYASNLESGVPARFSGSGSGSDFTLNIHPVEEGDTATYYCQHSWEIPCAFGGGTKLEIKR
ELISA OD 405 nm, Denatured Lysate [1]: 0.276 OD 405 nm
ELISA OD 405 nm, Viral Lysate (native) [2]: 1.25 OD 405 nm
O.D. Reduction, Fold [3]: 4.5 fold
O.D. Reduction, Percent [3]: 78%
